# Source: the supplement of paper PMC12042874
# ± gives the uncertainty stated by the source.
# Assay: amyloid nucleation score (Sup35N fusion, yeast selection) (log enrichment); library NNK1; higher = more nucleation; inactive = no reads after selection
# Outline: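 The nucleation score is the log enrichment of output over input reads, calculated with DiMSum and centred on the mode score of non-aggregating sequences. Sequences with under 100 input reads were excluded. Reads came from Illumina sequencing of plasmid inserts from psi-negative yeast expressing Sup35N fused to peptides of 20 random codons, induced 24 hours with 100 μM copper sulfate and grown 7 days at 30°C without adenine and uracil.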
row,Substance,amyloid nucleation score
1,RWCLVSGMILCSLLCVYSFN,-1.62 ± 2.4
2,FMRPVYHYMPSMTSYVSLDT,inactive
3,FRSFLVPACYHGFGDGYMFF,-0.439 ± 0.77
4,ATWTAWRHVAHFWPWAHAKS,0.936 ± 0.56
5,VGGQRKVRSDDVSMDVHTAT,0.924 ± 0.47
6,PCYAVYITAPINV,5.94 ± 0.093
7,NLLQLYDICAGCVRYSRWDG,1.53 ± 0.16
8,MFYVPIGPLSRCWRTALGFI,-0.786 ± 0.85
9,QMTVGQYSCL,0.45 ± 1.1
10,LILLLFEGFLLP,0.246 ± 0.63
11,WMYRLYSISLITSDCS,0.514 ± 0.33
12,CYATMYAQGDRRSGDGCLPT,-1.86 ± 1.4
13,RTFTGRDGCVKDVCTPHFEM,0.632 ± 0.9
14,VLEWRGPF,-0.239 ± 0.42
15,DHWSASIVIPVWSERNNSFG,-0.373 ± 1.4
16,TWYLDFFSSPFLVGFSLSFG,0.633 ± 0.49
17,LLWTGY,2.43 ± 0.099
18,FTSSIMEFNESQWVNFTFIW,4.42 ± 0.053
19,SEGKHNCKLT,-0.635 ± 0.95
20,KRGLAVLGAPKQMQTACWGQ,0.229 ± 0.83
21,TVGSIRRNHEVLWGTRILSG,-1.69 ± 2.7
22,RRYVICNYCLYSRV,1.12 ± 0.33
23,LIELRIWLLHLPMYGVLESI,-0.758 ± 0.39
24,VGKVCRTFNRSMGETS,0.439 ± 0.92
25,CGRKGEHIFYTTDNEYLNYV,0.211 ± 0.36

row,Substance,amyloid nucleation score
1,CWPRWNSVSLGSLSILLCFF,3.77 ± 0.11
2,FRNGDGVQPWLTWHAV,1.28 ± 0.33
3,RRCSEM,0.853 ± 0.4
4,NDDSDSVVFSTNGGIYFMHG,-0.177 ± 0.53
5,IGRRDWH,0.925 ± 0.49
6,SIFIAGWGCISYKRRVACFR,inactive
7,APHWLLRDPIESTADNDVYY,2.73 ± 0.44
8,DSFARYVGVLKRLARLSTYR,0.568 ± 0.72
9,LIVMVKV,0.111 ± 0.33
10,NFPVVW,0.286 ± 0.28
11,NSRNDLVMLILLPSSRAGRL,0.325 ± 0.99
12,PDCRSYLTIF,0.486 ± 0.31
13,STFMSILTSESTMRNGITNR,inactive
14,TISSLNLTRLSLDIFDFQSQ,3.25 ± 0.21
15,DDWAGLKFSYLWSVCCKWWD,2.52 ± 0.15
16,EHSFRNRCEAANWLVWLRVI,-0.061 ± 0.51
17,LIPCGPLFLFMQTNIDRANM,7.845 ± 0.044
18,YSSCFRSGIF,-0.68 ± 0.6
19,YRNLGGLLGIELINIMLLLW,-0.429 ± 0.93
20,SGSALYLCAISLRVSTEEKP,-0.178 ± 0.85
21,YVYGYLNHRTSSGRMFFLFY,0.077 ± 0.38
22,VVVFDKR,-0.041 ± 1
23,TKTSTSFGRVKPVN,0.793 ± 0.85
24,GSCLFVRGSFVDVGRLFESV,0.643 ± 0.67
25,FEVSGMCRVQVVTYNFFSSS,6.99 ± 0.088

row,Substance,amyloid nucleation score
1,HWTYWIRI,-0.084 ± 1.6
2,DKFLRWVNNVCFKSWTAIAP,0.609 ± 0.57
3,CSNVGVCGMSIH,5.01 ± 0.052
4,WKYVTLELIWWTTLVTAWGT,1.02 ± 0.8
5,LSGWRYMVKA,0.039 ± 0.41
6,ATCLLAFMNFVSILERRSES,1.86 ± 0.21
7,KVLNVCRL,inactive
8,VSLRTISWNMLLNDCWHVKM,0.176 ± 0.72
9,QMYYFRCGQFTQGGNTQWLW,0.632 ± 0.39
10,HIMYSLKASSHWSPIVFSHH,0.669 ± 0.59
11,GNALYICRF,0.572 ± 0.39
12,VLGPRWECMNRTYWRRTMVV,-0.011 ± 0.31
13,NEFVDQFSEHFGRVGEFPAW,-0.316 ± 0.4
14,SGLLS,-1.12 ± 0.65
15,NILPSREYHVAKVAGCATGW,-0.618 ± 1.4
16,SFSCSVVLNRILMGIIYTCG,-0.836 ± 0.55
17,TSSPSVTYLLRYRLQWTLHN,0.035 ± 0.76
18,GPPSWSELDFHYCVGGWFYP,-0.456 ± 0.56
19,RKFRNKAIISIIDVYRPAAI,1.01 ± 0.62
20,LHMLKMICKVVNRVSYS,-0.098 ± 0.23
21,LNNRE,0.805 ± 0.78
22,GKLPYVFRDCNKTVLVMALF,0.947 ± 0.73
23,KSSGALDMFSDTNMV,-0.894 ± 0.39
24,NVWLWDTKFILQTRIPS,-0.026 ± 1.7
25,KTTLCM,-0.088 ± 0.39

row,Substance,amyloid nucleation score
1,TEFSNAPPHTSAMVAYVLSY,-1.52 ± 1.7
2,MSLSDNWGL,-0.288 ± 0.69
3,ASYRKCLLCIRLNC,-0.753 ± 0.86
4,SKFNAIMNCDVIKRSLNCIN,0.022 ± 0.3
5,ALMRLTRNSMSFWRQ,-0.17 ± 0.36
6,GIWSNCKYVFSGIMSSYMVS,0.739 ± 0.16
7,GNGHWQQVG,0.001 ± 0.33
8,HDFYEDIVMEYVL,1.55 ± 0.51
9,LTAYLRGTDSGPERSWRCAS,-0.209 ± 0.88
10,LRYLQQWYST,2.67 ± 0.19
11,FSVLVPMYK,-0.361 ± 0.6
12,KRSNSFL,0.319 ± 0.27
13,RLLCCFCTWTLQMFCYSGCC,5.981 ± 0.053
14,ILRAFWESGHTGGVWATVSS,-1.19 ± 0.77
15,VLKHCWVGIFAQW,9.006 ± 0.052
16,LFTTFNNLISVFTVVLNSNQ,6.79 ± 0.076
17,NDVTVID,0.286 ± 0.17
18,YFLRHCCPD,-1.8 ± 2.4
19,SRRFYLTPELPVTHVCCVGK,1.03 ± 0.62
20,AYLYQSSYLVRC,0.368 ± 0.36
21,AVITLQVHLLPEYFQAACIT,0.154 ± 0.38
22,YIWFC,6.28 ± 0.071
23,GSIIMWHYGYYHGCNFYCCH,6.98 ± 0.07
24,WKVKLNGIG,0.341 ± 0.28
25,GSYLCLMTFFSLYEQHSCCC,inactive

row,Substance,amyloid nucleation score
1,RLDSPDVVSAFCEAALASAS,0.136 ± 0.76
2,WRNYYHWVTFRSDRLDRWFG,1.85 ± 0.12
3,IVKGLSCKIDWLCASMHWMR,0.053 ± 0.36
4,IVDSHVSIATYRLEELRRTL,2.11 ± 0.27
5,SLVYQYIVLCTV,-1.47 ± 1.2
6,ALPAMTQDKWHMNALRNYLD,1.48 ± 0.81
7,IYFVIGYVNVCWGSATEDMT,5.46 ± 0.084
8,CPTEGGLVWSYWSLS,1.09 ± 0.83
9,GCLRVSDTIRGMPRQSLDWA,0.445 ± 0.28
10,ADTLFPLDHPVINFSPFIVL,5.789 ± 0.05
11,HVLTQRRRMSFTVTRYHKRI,1.1 ± 0.52
12,VFSVAGASCCRRIGSCWLLR,0.687 ± 0.97
13,GYNSVYHLSNVALR,0.928 ± 0.32
14,DLTGKVRYQSVLPFVASPSM,0.11 ± 0.62
15,WLWPPLACDHMPIAVSETDA,-0.775 ± 0.99
16,TVVHINHHFRGTFISMAKSR,-1.58 ± 2.1
17,QVDHKIWKGTVYDLSMGMM,-0.35 ± 0.46
18,IARYSTVYPVPHNCRNHKHS,0.15 ± 1.1
19,VLFLTGFGNHSFRTDQMATG,0.287 ± 0.64
20,HVNLLNRTLCK,0.151 ± 0.9
21,RTRSGRVICNGFPRYSTTAA,inactive
22,TSNYAGAISFANSNILLFFV,3.64 ± 0.14
23,FTMKMGYMVAFIW,-0.394 ± 0.25
24,ACKCAFSGFSYVAFGPVMGG,-1.61 ± 1.9
25,ACDVVIRTWITKDTKGFYRA,0.488 ± 0.29

row,Substance,amyloid nucleation score
1,GMYRVNSWIMSL,inactive
2,DNRLEYSAGLVRVTRDAKGE,-0.106 ± 0.97
3,GCGMDGWDVQ,0.103 ± 0.25
4,RVRSSMCGALWARKFYRTHI,-0.116 ± 0.49
5,YNAASKGEINPNAGNVILFV,3.13 ± 0.1
6,ILGTIYDIMQNGDIHRFLAY,-0.834 ± 1.2
7,RIMYSRLDYWLAYPVISERG,-0.057 ± 1.4
8,ICFFGLDVNFTRLSTVTRFT,2.66 ± 0.16
9,NSVFVPFGKEF,-0.493 ± 0.39
10,ANMCISGAYNCVSVLCLRNR,6.59 ± 0.047
11,TNDEGPVRLNFNISR,-0.389 ± 0.26
12,YRITERIFFDQKASHVWLIT,-0.165 ± 0.41
13,FFCSNDLSFVAELILINRQV,0.87 ± 0.58
14,CHQFV,0.833 ± 0.5
15,NACFSIKQTYWNVT,0.537 ± 0.34
16,CVMWGTLRFLNLASGLFLCA,0.778 ± 0.93
17,SSLYETY,inactive
18,MVKRCVDNFRKWKSVDSSYR,0.671 ± 0.37
19,YRLGSKISNSVKPRFDRLVE,inactive
20,RTSPSYGIPNWAELLRVE,-0.311 ± 0.69
21,DKHSLKILYKCGHPSTDNGQ,1.51 ± 0.5
22,HNWCRSSRRVVMSFMCKTKL,0.412 ± 1.1
23,CRTCGFPLLYSAELVLEVC,0.018 ± 0.45
24,TLRVLFCRTMRRVDWSVQKV,-1.03 ± 1.7
25,VIILPGGVCMMVC,0.843 ± 0.41

row,Substance,amyloid nucleation score
1,SEAMGMDNSQWSFALFMASM,0.184 ± 0.48
2,NCLVAFYLKGYSCWWRFIIC,1.53 ± 0.52
3,AVSMWLPNDLAMIRSYIGYY,-0.475 ± 0.52
4,NTYWVSSAS,0.078 ± 0.64
5,QMNGWVCCFSQGQRMFVLLM,0.977 ± 0.47
6,RVHSIDENVWMVQGQNSRAG,3.73 ± 0.16
7,GYGNRNLALARGMLGQIL,0.215 ± 0.46
8,FSSSWELVRLYTASCKHDSK,0.782 ± 0.2
9,CCSTSADIHSARNDVWSYSE,-0.271 ± 0.88
10,YCCDDDGKFAWNECWDDTAR,0.102 ± 0.21
11,TVVEVRGVEQRHGLNCTNPG,-0.05 ± 0.57
12,MLNAIRSVGMSTHRSSEGG,-0.475 ± 0.77
13,MITARSLSPRIFRAESAYSE,0.117 ± 0.36
14,LLALCCDSLRCYR,0.282 ± 1.2
15,LYFKSSRCR,1.12 ± 0.52
16,TLSVFREWSCLGMLLGYHNL,inactive
17,ALWNYAVNSTLWWGLGYGWR,0.052 ± 0.41
18,GLRWYQFEPTQG,0.126 ± 0.38
19,LSNFLHCG,0.907 ± 0.4
20,DWNEEACV,0.432 ± 0.57
21,QYSGYNRRDDSFPSWGCLLT,inactive
22,PNYIRGSIINYILEYSISIN,0.02 ± 0.39
